The target of assay [1] is T1, human GPVI extracellular region-human Fc fusion protein (hGPVI-hFc) (human).
T1 construct: Expressed in COS-1, purified on Protein A; also called GPVI-HHH-hFc; hGPVIHHH-hFc
Put plainly: ELISA on immobilised hGPVI-hFc; + A450 0.5-1.0, ++ 1.0-2.0, +++ more than 2.0. The procedure: The hGPVI-hFc prepared by EXAMPLE 1B was diluted with D-PBS to 2 μg/mL and added to immunoplate (Maxisorp NUNC) at 50 μL/well. After incubation at 37° C. for one hour, the well was washed five times with ion-exchanged water, and D-PBS (pH7.4) containing 2% StabilGuard (Surmodics) was added to each well in 100 μL for blocking. Next, culture supernatant was added to each well and incubated at 37° C. for one hour. After incubation, the well was washed three times with the saline containing 0.05% Tween20. Peroxidase-labeled anti-mouse immunoglobulin antibody (DAKO, P260) was 1000-fold diluted with D-PBS containing 10% rabbit serum and added to each well at 50 μL. After incubation at 37° C. for one hour, washing in a similar manner was performed and TMB solution (BioFix) was added to each well. After ten minutes at room temperature, the reaction was terminated with 0.5 M sulfuric acid solution. Subsequently, absorbance at 450 nm was measured with the plate spectrophotometer (Multiscan JX, Dainippon Pharmaceutical). As a result, the cell whose culture supernatant reacted to hGPVI-hFc was selected and a cloning with limiting dilution method (“The Introduction to Monoclonal Antibody Experimental Procedure” written by Tamie Andoh and Takeshi Chiba (Kodansha, p 83)) was performed. Eight days later, screening was done in a similar manner and the antibody which reacts to hGPVI-hFc was selected.
(§1) To analyze a property for each antibody obtained in EXAMPLE 13, binding to human GPVI-hFc, competition with F1232-37-2 described in EXAMPLE 4 and specificity for L9 loop were investigated. That is, as for the binding to human GPVI, according to the method of EXAMPLE 2, a binding activity to immobilized antigen was measured. For the binding activity, the range of absorbance from 0.5 to 1.0 is represented by “+”, from 1.0 to 2.0 by “++”, the range more than 2.0 by “+++”. The competitive test with F1232-37-2 was performed as follows. That is, according to the method by Nakane et al. (J. Histochem. Cytochem., 22, 1084, 1974), peroxidase (TOYOBO)-labeled F1232-37-2 antibody was prepared and an antibody concentration was calculated from the amount of the antibody used.

Assay [2] concerns the target T1, human GPVI extracellular region-human …. As to the kind of experiment: ELISA of hybridoma culture supernatant on coated hGPVI-hFc (selection criterion). The method, then: Next, culture supernatant was added to each well and incubated at 37° C. for one hour. After incubation, the well was washed three times with the saline containing 0.05% Tween20. Peroxidase-labeled anti-mouse immunoglobulin antibody (DAKO, P260) was 1000-fold diluted with D-PBS containing 10% rabbit serum and added to each well at 50 μL. After incubation at 37° C. for one hour, washing in a similar manner was performed and TMB solution (BioFix) was added to each well. After ten minutes at room temperature, the reaction was terminated with 0.5 M sulfuric acid solution. Subsequently, absorbance at 450 nm was measured with the plate spectrophotometer (Multiscan JX, Dainippon Pharmaceutical). As a result, the cell whose culture supernatant reacted to hGPVI-hFc was selected and a cloning with limiting dilution method (“The Introduction to Monoclonal Antibody Experimental Procedure” written by Tamie Andoh and Takeshi Chiba (Kodansha, p 83)) was performed. Eight days later, screening was done in a similar manner and the antibody which reacts to hGPVI-hFc was selected.
After one week, hybridoma, which produces a desired antibody was screened using the binding property to hGPVI-hFc and hGPVI-mL9-hFc prepared in EXAMPLE 7 as an index. That is, the purified hGPVI-hFc or hGPVI-mL9-hFc, which was prepared in EXAMPLE 1, was diluted with D-PBS (pH7.4) to 1 μg/mL. And 50 μL/well of the solution was added to make hGPVI-hFc or hGPVI-mL9-hFc-coated plate using the same method as that of EXAMPLE 2. Next, a culture supernatant was added to each well, and after incubation at room temperature for one hour, by the same method as that of EXAMPLE 2, using peroxidase-labeled anti-mouse immunoglobulin antibody (DAKO, P260) a reaction was performed to measure an absorbance. As a result, the cell producing an antibody that binds to the purified hGPVI-hFc (absorbance: equal to or more than one), but not hGPVI-mL9-hFc (abdorbance: equal to or less than 0.5) was selected and cloned by the method described in EXAMPLE 2. Eight through ten days later, a screening was done as with the similar way to obtain a hybridoma producing an L9-specific mouse anti-human GPVI antibody. As with EXAMPLE 2B (3), the obtained hybridoma was cultured and a monoclonal antibody was purified. The sub-type of each antibody was determined using IsoStrip Mouse Monoclonal antibody Isotyping Kit (Roche).

For assay [3] the target is unchanged. As to the kind of experiment: competition ELISA on hGPVI-hFc plate; competitor: peroxidase-labelled F1232-37-2; +++ more than 50%, ++ 30-50%, + 10-30% inhibition. The procedure:
as §1
Next, by using the peroxidase-labeled antibody, the competitive test for a variety of purified antibody was performed. That is, 25 μL of the above labeled antibody and 25 μL of each purified antibody were added to well of hGP-hFc-immobilized plate. After incubation at 37° C. for one hour, the well was washed five times with the saline containing 0.05% Tween20, and the reaction mixture was developed with TMB solution (BioFix). After incubation at room temperature for 10 minutes, the reaction was terminated with 0.5 M sulfuric acid solution and an absorbance at 450 nm was measured with the plate spectrophotometer (Multi-Scan JX, Dainippon Pharmaceutical).

The target is the same in assay [4]. Put plainly: ELISA, collagen on plate, hGPVI-hFc plus antibody; +++ more than 50%, ++ 30-50%, + 10-30% inhibition. In general terms: An ELISA detects its analyte on a solid surface through an enzyme-linked reagent.

Substitutions are numbered along the chain they refer to. Where only a bound is given, the exact number is not on record here.

These results are taken from US20090041783A1 (MOCHIDA PHARMACEUTICAL, published 2009).

T1 sequence (chain, as listed by the source limits assumed): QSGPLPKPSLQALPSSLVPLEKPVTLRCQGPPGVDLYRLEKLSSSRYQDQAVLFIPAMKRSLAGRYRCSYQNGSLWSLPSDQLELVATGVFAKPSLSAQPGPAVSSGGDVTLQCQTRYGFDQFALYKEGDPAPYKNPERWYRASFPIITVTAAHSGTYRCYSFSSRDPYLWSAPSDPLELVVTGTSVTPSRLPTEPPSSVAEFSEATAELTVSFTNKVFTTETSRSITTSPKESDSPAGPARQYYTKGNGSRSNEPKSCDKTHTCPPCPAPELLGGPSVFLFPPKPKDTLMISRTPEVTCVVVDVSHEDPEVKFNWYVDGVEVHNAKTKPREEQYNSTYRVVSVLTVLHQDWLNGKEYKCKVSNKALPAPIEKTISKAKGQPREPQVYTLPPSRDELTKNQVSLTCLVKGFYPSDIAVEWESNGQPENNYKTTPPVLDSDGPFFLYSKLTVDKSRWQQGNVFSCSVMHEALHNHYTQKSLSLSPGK

B1: F1245-7-1 (antibody, V domains shown)
VH: QVQLQQPGAELVKPGASVKLSCKASGYTFTSYWMHWVKQRPGQGLEWIGMIHPNSGSTNYNEKFKSKATLTVDKSSSTAYMQLSSLTSEDSAVYYCASPVTAVVEYYFDYWGQGTTLTVSS
VL: SIVMTQTPKFLLVSAGDRVTITCKASQSVSNDVAWYQQKPGQSPKLLIYYASNRYTGVPDRFTGSGYGTDFTFTISTVQAEDLAVYFCQQDYSSLTFGSGTKLEIKR
Consider B1, for which the absorbance in assay [1] was 1 to 2 od; in assay [2], ≥ 1 absorbance. Moreover, the percent inhibition in assay [3] was in the range of 10 to 30%.

B2: F1249-3-2 (antibody, V domains shown)
VH: EVQLVESGGGLVKPGGSLKLSCAASGFTFSSYGMSWVRQTPDKRLEWVATISSGGSYTYYSDSVKGRFTISRDNAKNNLYLQLSSLKSQDTAIYYCARDSGYFDYWGQGTTLTVSS
VL: NIVLTQSPASLAVSLGQRATISCRASESVDSYGNSFMHWYQQKPGQPPKLLIYLASNLESGVPARFSGSGSRTDFTLTIDPVEADDAATYYCQQNNEDPRTFGGGTKLEIKR
B2: the percent inhibition in assay [4] lay in the range of 10 to 30%; in assay [3] it was 30 to 50%. For the same molecule, the absorbance in assay [1] was 0.5 to 1 od; in assay [2] it was ≥ 1 absorbance.

B3: F1246-1-1 (antibody, V domains shown)
VH: EVQLVESGGDLVKPGGSLKLSCAASGFTFSSYGMSWVRQTPDKRLEWVATISNGGTYTYYPDSVKGRFTISRDNAKNTLYLQMSSLKSDDTAMYYCGRLRDYYAMDYWGQGTSVTVSS
VL: B2 VL with N1D, L54R, V62I, D80N, A87V, N95S, R100W
As for B3, the absorbance in assay [1] was 1 to 2 od; in assay [2] it was ≥ 1 absorbance. In addition, the percent inhibition in assay [3] was 10 to 30%.

B4: F1249-30-1 (antibody, V domains shown)
VH: QVQLQQSGAELVRPGVSVKISCKGSGYTFTDYAMHWVKQSHAKSLEWIGVISTYYGDTSYNQKFKGKAAMTVDKSSSTAYMELARLTSDDSAIYYCARAEDYDPWFAYWGQGTLVTVSA
VL: B2 VL with N1D, L54R, V62I, D80N, A87V, N95S, N96D, R100L, G104A, I110L
B4: the results for the absorbance in assay [1] and in assay [2] were > 2 od and ≥ 1 absorbance, respectively. Besides, the percent inhibition in assay [3] is > 50%.

B5: F1249-22-1 (antibody, V domains shown)
VH: QVQLQQPGAELVKPGASVKLSCKASGYTFTSYWMQWVKERPGQGLEWIGEIDPSDSYTNYNQKFKGKATLTVDTSSSTACMQLSSLTSEDSAVYYCARGAITTATLDYWGQGTTLTVSS
VL: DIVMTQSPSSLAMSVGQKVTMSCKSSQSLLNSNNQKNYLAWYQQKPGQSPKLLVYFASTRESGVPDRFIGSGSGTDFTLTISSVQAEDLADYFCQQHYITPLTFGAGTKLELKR
With B5, the percent inhibition in assay [4] lay within 30 to 50%; in assay [3], 10 to 30%. For the same molecule, the figures for the absorbance in assay [1] and in assay [2] were 0.5 to 1 od and ≥ 1 absorbance, respectively.

B6: F1249-20-1 (antibody, V domains shown)
VH: B4 VH with A69T, D89E
VL: DIVLTQSPASLAVSLGQRATISCRASESVDSYGNSFMYWYQQKPGQPPKLLIYRASNLESGIPARFSGSGSRTDFTLTINPVEADDVATYYCQQSDEDPLTFGAGTKLELKR
Consider B6, for which the figures for the absorbance in assay [1] and in assay [2] were > 2 od and ≥ 1 absorbance, respectively. Moreover, the percent inhibition in assay [3] was 30 to 50%.

B7: F1245-4-1 (antibody, V domains shown)
VH: QVQLQQPGAELVKPGASVKLSCKASGCTFTSYWMHWVKQRPGQGLEWIGMIHPNSDNTNYNEKFKSKATLTVDKSSSTAYMHLSSLTSEDSAVYYCATHYYDYVDYWGQGTTLTVSS
VL: NIVMTQTPKFLLVSAGDRVTITCKASQSVSNDVAWYQQKPGQSPKLLIYYASNRYTGVPDRFTGSGYGTDFTFTISTVQAEDLAVYFCQQDYSSPWTFGGGTKLEIKR
As for B7, the percent inhibition in assay [4] fell in the range of 10 to 30%; in assay [3], 30 to 50%. The absorbance is > 2 od in assay [1] and ≥ 1 absorbance in assay [2].

B8: F1257-3-1 (antibody, V domains shown)
VH: QVTLKESGPGMLQPSKTLSLTCSFSGFSLSTSGMVVSWIRQPSGKSLEWLAAIDWDGDKYYNPSLKSRLTVSKDTSNTQVFLKISSVDIADTATYYCARTPYYGYKEAYYFDYWGQGVKVTVSS
VL: DIQMTQSPASLSASLEEIVTITCKASRAIDDYLSWYQQKPGKSPQLLIYDATSLADGVPSRFSGSRSGTQYSLKISRPQVDDSGIYYCLQSYSTPWTFGGGTKLDLKR
As for B8, the absorbance in assay [1] was > 2 od.
